Consider three molecules from patent US7557181B2, “Pan-HER antagonists and methods of use” (Molecular Logix, Inc., priority 2005, dated 2009).

Holding throughout (assay type): cell-based
The test system of test [1] is MCF-7 cells (human breast cancer cell line that express HER2 and HER3). In words: MCF-7 cell proliferation stimulation assay (WST-1). The note with it: serum-free, 72 hours, FIG. 4. The method, then: MCF-7 cells were obtained from the American Type Culture Collection (ATCC). Stock cultures of MCF-7 were maintained in Eagle's MEM supplemented with 1% ITS-X (Invitrogen) and 10% fetal bovine serum. For proliferation assays, MCF-7 cells were transferred to serum-free medium (SFM) for 24 hours and then trypsinized and suspended at 1E5 cells/mL in SFM. Fifty microliters of cell suspension (5000 cells) were plated per well in 96 well microtiter plates. Serial dilutions of HER ligands or mutant proteins were prepared at twice the final concentration in SFM and 50 ul was added to wells, bringing the final volume to 100 ul at the desired final concentration. Plates were incubated for 72 hours at 37 C in a humidified 5% CO2 atmosphere. Cell proliferation was determined by addition of 10 ul/well of WST-1 Cell Proliferation Reagent (Roche Applied Sciences, Indianapolis, Ind.) for the last three hours of the proliferation period.
On the technique in general: Tetrazolium assays rely on reduction of a dye to a coloured formazan, in cell work by metabolically active cells.

In test [2] the target is T1, EGFR (Homo sapiens, UniProt P00533).
T1 construct: Autophosphorylation of EGFR in A431 cells, an epithelial cancer cell line; endogenous in cells; host or cells: A431 cells
Nature of the test: Autophosphorylation of EGFR in A431 cells. The settings on record: epithelial cancer cell line, FIG. 2.

Test [3] concerns HER5 cells (mouse fibroblast cells that overexpress human EGFR). Nature of the test: HER5 cell proliferation stimulation assay (WST-1). The note with it: serum-free, 48 hour proliferation period, FIG. 3. The method, then:
Hung (MD Anderson Cancer Center). Stock cultures of HER5 were propagated in D-MEM/F12 medium containing 10% fetal bovine serum, 100 units/ml of penicillin and 100 ug/ml of streptomycin in a water-jacketed incubator at 37° C. in a humidified 5% CO2 atmosphere. For HER5 proliferation assays, the cells were changed into DMEM/F12 without serum for 24 hours. Cells were then trypsinized and suspended at 1E5 cells/ml. […] Fifty microliters of cell suspension (5000 cells) were added to appropriate wells bringing the total volume to 100 ul at the desired concentrations. Plates were incubated for a 48 hour proliferation period. Cell proliferation was determined by addition of 10 ul/well of WST-1 Cell Proliferation Reagent (Roche Applied Sciences, Indianapolis, Ind.) for the last three hours of the proliferation period. WST-1 is a tetrazolium salt that is cleaved to formazan dye by mitochondrial dehydrogenases in viable cells. The amount of formazan was measured at 450 nm using a microplate reader (Dynex Technologies) with MRX Revelation software.

B1: heregulin (protein)
chain: SHLVKCAEKEKTFCVNGGECFMVKDLSNPSRYLCKCPNEFTGDRCQNYVMASFYKHLGIEFMEAEELY
Regarding B1, the “stimulation of MCF-7 cells (proliferation)” value (“stimulation of MCF-7 cells” for short) in test [1] is “can be stimulated”.

B2: BiRegulin: chimeric EGF homolog, amino terminal residues (NSDSE) of EGF replaced with corresponding residues of HRGβ1 (SHLVK) (protein)
chain: HHHHHHIEGRSHLVKCPLSHDGYCLHDGVCMYIEALDKYACNCVVGYIGERCQYRDLKWWELR
Turning to B2, in test [2], the “stimulation of autophosphorylation of EGFR” value is given as “stimulated”. Moreover, in test [3], the “stimulation of HER5 cells (proliferation)” value is recorded as “can be stimulated”. For the same molecule, the “stimulation of MCF-7 cells” value in test [1] is listed as “can be stimulated”.

B3: BiRV35EG39L: BiRegulin with glycine 39 replaced by leucine and valine 35 replaced with glutamate (protein)
chain: HHHHHHIEGRSHLVKCPLSHDGYCLHDGVCMYIEALDKYACNCVEGYILERCQYRDLKWWELR
With B3, the “stimulation of autophosphorylation of EGFR” value in test [2] was “does not stimulate autophosphorylation”. Moreover, the “stimulation of HER5 cells (proliferation)” value in test [3] was “Neither cell line is stimulated”. Further, the “stimulation of MCF-7 cells” value in test [1] is listed as “Neither cell line is stimulated”.
